According to patent US20210388107A1 (BYONDIS B V, published 2021):
Numbering of substitutions follows the chain as printed.

B1: humanized anti-SIRPα antibody 1 (antibody, human IgG1, kappa, L234A L235A)
heavy: not shown
light: DIQMTQSPSSLSASVGDRVTITCRASQSINSYLAWYQQKPGKAPKLLIYSASFLYSGVPSRFSGSGSGTDFTLTISSLQPEDFATYYCQSWHYISRSYTFGQGTKVEIKRTVAAPSVFIFPPSDEQLKSGTASVVCLLNNFYPREAKVQWKVDNALQSGNSQESVTEQDSKDSTYSLSSTLTLSKADYEKHKVYACEVTHQGLSSPVTKSFNRGEC
notes: human IgG1 LALA, kappa; also called mAb 1
B2: humanized anti-SIRPα antibody 4 (antibody, human IgG1, kappa, L234A L235A)
heavy: not shown
light: B1 light
notes: human IgG1 LALA, kappa; also called mAb 4
B3: humanized anti-SIRPα antibody 2 (antibody, human IgG1, kappa, L234A L235A)
heavy: not shown
light: B1 light
notes: human IgG1 LALA, kappa; also called mAb 2
B4: humanized anti-SIRPα antibody 3 (antibody, human IgG1, kappa, L234A L235A)
heavy: not shown
light: B1 light
notes: human IgG1 LALA, kappa; also called mAb 3
B5: humanized anti-SIRPα antibody 7 (antibody, human IgG1, kappa, L234A L235A, V domains shown)
VH: RQLVESGGGLVQPGGSLRLSCAASGFSLSSHGISWVRQAPGKGLEWVGTIGTGVITYYASWAKGRFTGSKTSSTAYLQMTSLRAEDTAVYYCARGSAWNDPFDYWGQGTLVTVSS
VL: DIVMTQSPSSLSASVGDRVTITCQASQSVYGNNDLAWYQQKPGQAPKLLIYLASTLATGVPSRFSGSGSGTDFTLTISSLQPEDFATYYCLGGGDDEADNTFGQGTKVEIKR
notes: human IgG1 LALA, kappa; also called mAb 7
B6: humanized anti-SIRPα antibody 9 (antibody, human IgG1, kappa, L234A L235A, V domains shown)
VH: B5 VH with A84S
VL: B5 VL
notes: human IgG1 LALA, kappa; also called mAb 9
B7: humanized anti-SIRPα antibody 11 (antibody, human IgG1, kappa, L234A L235A, V domains shown)
VH: B5 VH
VL: B5 VL with V3E, L11V, I21L, T101V, Q104G
notes: human IgG1 LALA, kappa; also called mAb 11

Molecular target: T1, human SIRPγ, extracellular domain, Avi-FXa-Fc tag (human, biotinylated)
T1 construct: also called huSIRPγ
Test: SPR, captured biotinylated antigen
Description: (§1) Surface Plasmon Resonance (SPR) assay: Affinity analysis was performed by single cycle kinetics analysis on a Surface Plasmon Resonance apparatus (BiaCore™ T200 system, GE Life Sciences) at 25° C. […] For each step an association time of 150 sec was used, followed by a dissociation time of 600 sec after the highest concentration only, all at a flow rate of 30 μl/min. Regeneration was performed with 6 M guanidine-HCl, 0.25 M NaOH solution (120 sec with flow rate of 30 μl/min). […] Sensorgrams were fitted with a 1:1 Langmuir model for all tested anti-SIRP antibodies. The kinetic parameters (association rate [kₐ], dissociation rate [kd] and binding constant, also referred to as equilibrium dissociation constant or binding affinity [KD]) were calculated using BiaCore™ T200 evaluation software (v3.1).

T1 sequence (chain, as listed by the source limits assumed): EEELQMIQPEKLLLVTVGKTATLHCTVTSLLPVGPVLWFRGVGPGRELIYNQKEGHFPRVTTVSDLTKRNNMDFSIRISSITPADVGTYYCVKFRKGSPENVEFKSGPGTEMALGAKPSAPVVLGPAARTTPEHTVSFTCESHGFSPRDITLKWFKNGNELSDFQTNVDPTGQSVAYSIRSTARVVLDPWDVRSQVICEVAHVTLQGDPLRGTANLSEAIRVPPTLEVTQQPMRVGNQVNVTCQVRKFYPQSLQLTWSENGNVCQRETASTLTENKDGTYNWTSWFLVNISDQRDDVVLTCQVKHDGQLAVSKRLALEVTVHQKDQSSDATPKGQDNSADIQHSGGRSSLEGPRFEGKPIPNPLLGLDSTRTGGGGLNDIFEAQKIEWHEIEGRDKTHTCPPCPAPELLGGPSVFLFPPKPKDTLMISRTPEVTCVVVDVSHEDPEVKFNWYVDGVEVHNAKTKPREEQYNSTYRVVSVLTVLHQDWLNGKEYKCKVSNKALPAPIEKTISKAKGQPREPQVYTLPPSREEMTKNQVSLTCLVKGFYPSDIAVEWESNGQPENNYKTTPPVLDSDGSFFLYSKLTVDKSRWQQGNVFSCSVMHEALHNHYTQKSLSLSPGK

Binder	binding result
B1	no binding (tested: below 10 RU cut-off; up to 1600 ng/ml)
B2	no binding (tested: below 10 RU cut-off; up to 1600 ng/ml)
B3	no binding (tested: below 10 RU cut-off; up to 1600 ng/ml)
B4	no binding (tested: below 10 RU cut-off; up to 1600 ng/ml)
B5	no binding (tested: below 10 RU cut-off; up to 1600 ng/ml)
B6	no binding (tested: below 10 RU cut-off; up to 1600 ng/ml)
B7	no binding (tested: below 10 RU cut-off; up to 1600 ng/ml)

Molecular target: T2, human SIRPβ1v1, extracellular domain, Avi-FXa-Fc tag (human, biotinylated)
T2 construct: also called huSIRPβ1v1
Test: SPR, captured biotinylated antigen
Description: as §1

T2 sequence (chain, as listed by the source limits assumed): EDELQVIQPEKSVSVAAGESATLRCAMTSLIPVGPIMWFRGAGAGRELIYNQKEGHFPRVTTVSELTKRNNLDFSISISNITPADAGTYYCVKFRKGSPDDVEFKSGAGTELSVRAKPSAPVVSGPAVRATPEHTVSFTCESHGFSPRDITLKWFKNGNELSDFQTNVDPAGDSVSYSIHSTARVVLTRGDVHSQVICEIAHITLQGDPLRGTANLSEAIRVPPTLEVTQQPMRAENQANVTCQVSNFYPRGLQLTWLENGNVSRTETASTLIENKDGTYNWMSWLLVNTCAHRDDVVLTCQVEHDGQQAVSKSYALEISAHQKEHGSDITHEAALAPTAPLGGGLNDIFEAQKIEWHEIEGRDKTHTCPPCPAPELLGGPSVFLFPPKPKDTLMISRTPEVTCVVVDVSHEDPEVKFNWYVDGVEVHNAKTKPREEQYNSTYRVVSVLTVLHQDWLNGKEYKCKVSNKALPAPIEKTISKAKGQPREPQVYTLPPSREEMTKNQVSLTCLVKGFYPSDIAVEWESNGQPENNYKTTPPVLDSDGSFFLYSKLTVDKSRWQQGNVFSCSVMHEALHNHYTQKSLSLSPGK

Binder	Kd
B5	1.65 nM
B6	1.44 nM
B7	2.01 nM

Molecular target: T3, human SIRPα1 extracellular domain 1-370, Avi-FXa-Fc tag (human, biotinylated)
T3 construct: also called huSIRPα1; v2
Test: SPR, captured biotinylated antigen
Description: as §1

T3 sequence (chain, as listed by the source limits assumed): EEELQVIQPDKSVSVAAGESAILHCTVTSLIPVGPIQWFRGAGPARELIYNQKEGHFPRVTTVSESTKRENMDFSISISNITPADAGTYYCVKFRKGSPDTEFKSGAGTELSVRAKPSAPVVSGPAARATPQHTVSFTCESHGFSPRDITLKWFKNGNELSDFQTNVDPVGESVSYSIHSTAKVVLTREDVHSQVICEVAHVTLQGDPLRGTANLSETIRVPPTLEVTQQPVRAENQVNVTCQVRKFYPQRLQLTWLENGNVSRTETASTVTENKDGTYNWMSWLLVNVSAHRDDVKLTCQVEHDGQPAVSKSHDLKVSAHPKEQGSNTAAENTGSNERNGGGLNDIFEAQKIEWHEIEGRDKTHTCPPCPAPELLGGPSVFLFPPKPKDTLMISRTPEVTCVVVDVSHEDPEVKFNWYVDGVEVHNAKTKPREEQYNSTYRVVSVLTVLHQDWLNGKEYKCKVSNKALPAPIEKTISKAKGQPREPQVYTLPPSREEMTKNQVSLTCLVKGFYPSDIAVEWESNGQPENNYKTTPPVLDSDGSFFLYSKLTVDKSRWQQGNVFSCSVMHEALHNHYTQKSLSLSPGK

Binder	Kd
B1	1.49 nM
B2	1.38 nM
B3	1.34 nM
B4	0.908 nM
B5	0.0171 nM
B6	0.0191 nM
B7	0.0349 nM

Molecular target: T4, cynomolgus monkey SIRPα, extracellular domain, Avi-FXa-Fc tag (cynomolgus monkey, biotinylated)
T4 construct: also called cySIRPα
Test: SPR, captured biotinylated antigen
Description: as §1

Binder	Kd
B1	1.87 nM
B2	1.94 nM
B3	2.27 nM
B4	1.66 nM

Molecular target: T5, human SIRPβ1v2, extracellular domain, Avi-FXa-Fc tag (human, biotinylated)
T5 construct: also called huSIRPβ1v2
Test: SPR, captured biotinylated antigen
Description: as §1

T5 sequence (chain, as listed by the source limits assumed): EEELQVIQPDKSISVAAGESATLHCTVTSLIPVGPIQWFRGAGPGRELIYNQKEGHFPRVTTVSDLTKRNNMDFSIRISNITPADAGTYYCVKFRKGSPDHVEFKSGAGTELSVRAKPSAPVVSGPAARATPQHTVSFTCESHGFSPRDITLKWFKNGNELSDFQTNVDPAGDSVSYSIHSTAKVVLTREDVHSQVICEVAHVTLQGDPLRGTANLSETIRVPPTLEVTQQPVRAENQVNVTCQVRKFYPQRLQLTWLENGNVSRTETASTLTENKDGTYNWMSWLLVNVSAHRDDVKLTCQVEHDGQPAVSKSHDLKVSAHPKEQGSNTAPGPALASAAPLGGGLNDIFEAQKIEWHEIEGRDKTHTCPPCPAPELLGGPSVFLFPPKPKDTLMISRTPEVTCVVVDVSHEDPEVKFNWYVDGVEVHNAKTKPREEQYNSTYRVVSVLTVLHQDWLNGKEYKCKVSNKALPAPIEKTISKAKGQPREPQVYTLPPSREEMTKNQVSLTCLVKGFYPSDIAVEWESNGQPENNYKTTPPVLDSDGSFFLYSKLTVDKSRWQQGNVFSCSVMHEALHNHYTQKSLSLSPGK

Binder	Kd
B1	2.42 nM
B2	2.34 nM
B3	2.54 nM
B4	1.92 nM

Molecular target: T6, human SIRPαBIT, extracellular domain 1-370, Avi-FXa-Fc tag (human, biotinylated)
T6 construct: also called huSIRPαBIT; v1
Test: SPR, captured biotinylated antigen
Description: as §1

T6 sequence (chain, as listed by the source limits assumed): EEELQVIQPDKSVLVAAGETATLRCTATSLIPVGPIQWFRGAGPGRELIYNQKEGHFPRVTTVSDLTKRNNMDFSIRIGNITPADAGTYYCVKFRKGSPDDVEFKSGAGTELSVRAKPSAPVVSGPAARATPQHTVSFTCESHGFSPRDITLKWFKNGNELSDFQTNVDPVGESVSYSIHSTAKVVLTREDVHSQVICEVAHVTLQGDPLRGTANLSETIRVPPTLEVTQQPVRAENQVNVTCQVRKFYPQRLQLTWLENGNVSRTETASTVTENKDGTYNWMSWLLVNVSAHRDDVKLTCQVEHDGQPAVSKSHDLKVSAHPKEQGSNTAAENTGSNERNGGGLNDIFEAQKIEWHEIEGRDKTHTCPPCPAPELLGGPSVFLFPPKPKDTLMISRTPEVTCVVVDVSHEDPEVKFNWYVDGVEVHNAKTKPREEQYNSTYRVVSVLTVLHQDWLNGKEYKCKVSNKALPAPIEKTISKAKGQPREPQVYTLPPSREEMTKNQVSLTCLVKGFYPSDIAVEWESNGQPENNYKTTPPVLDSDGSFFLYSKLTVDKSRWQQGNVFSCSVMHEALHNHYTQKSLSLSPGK

Binder	Kd
B1	< 0.01 nM
B2	< 0.01 nM
B3	< 0.01 nM
B4	< 0.01 nM
B5	0.378 nM
B6	0.365 nM
B7	0.212 nM

Molecular target: T7, human SIRPγ on human CD3+ T-cells (human, UniProt Q9P1W8 29-387)
T7 construct: whole, on cells
Test: flow cytometry on CD3+ T-cells in PBMC of two healthy individuals, % of positive cells
Description: (§2) Flow Cytometry assay: Peripheral mononuclear cells (PBMC) were isolated from fresh blood of healthy individuals using Percoll gradient. […] Cells (200,000 cells/well in a 96-well plate) were subsequently incubated in the presence of tested antibodies or control conditions with secondary antibodies only (secondary goat anti-human IgG Alexa 633 F(ab′)₂ fragment, dilution 1:1000, Jackson Immuno Research, and secondary goat anti-mouse IgG Alexa 633 F(ab′)₂ fragment, dilution 1:250, Invitrogen) for 30 min on ice. After that, cells were washed with FACS buffer and resuspended in a mixture of anti-human CD3 FITC antibody (dilution 1:100, Invitrogen) with respective secondary antibody (either anti-human or anti-mouse) and incubated for 30 min in the dark on ice. Afterwards the cells were washed with FACS buffer and resuspended in 150 μl of FACS buffer and fluorescence intensities were determined by flow cytometry (LSRII HTS or LSRFortessa, BD Biosciences, CA, USA) and indicated as the median fluorescence intensity (MFI-Median) and percentage of positive cells.

T7 sequence (Q9P1W8 29-387): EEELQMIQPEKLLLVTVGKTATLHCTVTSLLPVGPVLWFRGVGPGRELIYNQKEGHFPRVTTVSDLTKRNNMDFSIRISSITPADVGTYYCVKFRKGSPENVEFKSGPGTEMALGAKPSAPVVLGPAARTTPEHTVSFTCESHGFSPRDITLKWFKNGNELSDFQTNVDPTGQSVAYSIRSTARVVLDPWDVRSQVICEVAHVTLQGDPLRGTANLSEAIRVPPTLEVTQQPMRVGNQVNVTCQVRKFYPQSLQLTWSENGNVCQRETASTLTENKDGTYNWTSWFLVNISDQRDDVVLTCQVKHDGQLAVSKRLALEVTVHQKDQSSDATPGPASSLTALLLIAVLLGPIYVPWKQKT

Binder	binding result
B1	no binding
B2	no binding
B3	no binding
B4	no binding
B5	no binding

Molecular target: T8, cynomolgus monkey SIRPα expressed on ExpiCHO-S cells (cynomolgus monkey, UniProt A0A2K5VYQ9 31-507)
T8 construct: whole, on cells; also called cySIRPα; ExpiCHO-S (cySIRPα)
T8 sequence: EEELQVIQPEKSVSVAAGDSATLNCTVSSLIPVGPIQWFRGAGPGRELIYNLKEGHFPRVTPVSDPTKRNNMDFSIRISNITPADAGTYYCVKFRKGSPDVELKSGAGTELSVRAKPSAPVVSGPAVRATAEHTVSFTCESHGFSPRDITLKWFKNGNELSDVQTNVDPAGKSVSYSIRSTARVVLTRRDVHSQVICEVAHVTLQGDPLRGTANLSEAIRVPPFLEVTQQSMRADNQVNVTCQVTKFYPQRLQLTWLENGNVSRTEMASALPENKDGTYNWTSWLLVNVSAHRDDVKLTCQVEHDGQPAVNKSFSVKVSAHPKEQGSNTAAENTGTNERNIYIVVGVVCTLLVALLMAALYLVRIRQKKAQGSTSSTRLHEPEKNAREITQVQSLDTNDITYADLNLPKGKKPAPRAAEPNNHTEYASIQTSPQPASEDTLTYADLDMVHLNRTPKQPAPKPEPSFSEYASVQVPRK
Test: flow cytometry, ExpiCHO-S cells
Description: (§3) After an incubation time of 30 min at 4° C., the cells were washed three times with ice-cold FACS buffer and 50 μl/well secondary mAb (for human antibodies, AffiniPure F(ab′)₂ fragment Goat-anti-human IgG-APC, 1:6,000 dilution, Jackson Immuno Research was added and for mouse antibodies, AffiniPure Fab fragment Goat Anti-Mouse IgG (H+L)-Alexa Fluor 488, 1:1,000 dilution, Jackson Immuno Research was added). After 30 min at 4° C., cells were washed twice and resuspended in 150 μl FACS buffer. Fluorescence intensities were determined by flow cytometry (BD FACSVerse, Franklin Lakes, N.J.) and indicated as the median fluorescence intensity (MFI-Median) for U937 cells and the mean fluorescence intensity (MFI-Mean) for ExpiCHO-S cells. Curves were fitted by nonlinear regression using the sigmoidal dose-response equation with variable slope (four parameters) in GraphPad Prism (version 7.02 for Windows, GraphPad, San Diego, Calif.). EC₅₀ values were calculated as the concentration in μg/ml that gives a response half way between bottom and top of the curve, when using a 4-parameter logistic fit.

Binder	EC50
B1	0.12 µg/mL
B2	0.14 µg/mL
B3	0.12 µg/mL
B4	0.15 µg/mL

Molecular target: T9, human SIRPαBIT expressed on cells (human, UniProt P78324 31-504)
T9 construct: endogenous on U937 cells or transiently expressed on ExpiCHO-S cells; in the SHP-1 assay a ProLink-tagged form on Jurkat cells; also called huSIRPαBIT; U937 cells (huSIRPαBIT)
Test: flow cytometry, ExpiCHO-S cells
Description: as §3

Binder	EC50
B1	0.3 µg/mL
B2	0.36 µg/mL
B3	0.31 µg/mL
B4	0.28 µg/mL
B5	0.2 µg/mL
B6	0.11 µg/mL
B7	0.08 µg/mL

Molecular target: T10, human SIRPα1 expressed on cells (human, UniProt P78324 31-504)
T10 construct: whole, on cells; also called huSIRPα1; ExpiCHO-S (huSIRPα1)
Test: flow cytometry, ExpiCHO-S cells
Description: as §3

Binder	EC50
B1	0.28 µg/mL
B2	0.38 µg/mL
B3	0.32 µg/mL
B4	0.4 µg/mL
B5	0.2 µg/mL
B6	0.19 µg/mL
B7	0.11 µg/mL

Molecular target: T7, human SIRPγ on human CD3+ T-cells
Test: flow cytometry on CD3+ T-cells in PBMC of two healthy individuals, MFI
Description: as §2

Binder	binding result
B6	no binding
B7	no binding

Molecular target: T9, human SIRPαBIT expressed on cells
Test: flow cytometry, U937 cells
Description: as §3

Binder	EC50
B1	0.09 µg/mL
B2	0.1 µg/mL
B3	0.1 µg/mL
B4	0.12 µg/mL
B5	3.55 µg/mL
B6	2.78 µg/mL
B7	3.73 µg/mL
